The results in this text go back to article PMC5013595.

Data set [1] in a line: secretion into S2 culture medium. Conditions: glycan lost; control: wild type.
Data set [2] is described as follows: size-exclusion chromatography. Conditions: glycan lost; control: glycosylated IFNγR2.

B1: interferon-γ receptor 2 (IFNγR2): N110Q (protein)
parent chain: MRPTLLWSLLLLLGVFAAAAAAPPDPLSQLPAPQHPKIRLYNAEQVLSWEPVALSNSTRPVVYQVQFKYTDSKWFTADIMSIGVNCTQITATECDFTAASPSAGFPMDFNVTLRLRAELGALHSAWVTMPWFQHYRNVTVGPPENIEVTPGEGSLIIRFSSPFDIADTSTAFFCYYVHYWEKGGIQQVKGPFRSNSISLDNLKPSRVYCLQVQAQLLWNKSNIFRVGHLSNISCYETMADASTELQQVILISVGTFSLLSVLAGACFFLVLKYRGLIKYWFHTPPSIPLQIEEYLKDPTQPILEALDKDSSPKDDVWDSVSIISFPEKEQEDVLQTL
Consider B1, for which the expression_or_secretion result in data set [1] is on record as “abolishes”.

B2: interferon-γ receptor 2 (IFNγR2): PNGase F (protein)
parent chain: B1 parent chain
Regarding B2, the oligomerisation result in data set [2] is on record as “increases”.

B3: interferon-γ receptor 2 (IFNγR2): N231Q (protein)
parent chain: B1 parent chain
Consider B3, for which the expression_or_secretion result in data set [1] was “abolishes”.

B4: interferon-γ receptor 2 (IFNγR2): N137Q (protein)
parent chain: B1 parent chain
In the case of B4, in data set [1], the expression_or_secretion entry is listed as “abolishes”.

B5: interferon-γ receptor 2 (IFNγR2): N56Q, N110Q, N137Q and N231Q (protein)
parent chain: B1 parent chain
Take B5: the expression_or_secretion entry in data set [1] is “abolishes”.

B6: interferon-γ receptor 2 (IFNγR2): Endo H (protein)
parent chain: B1 parent chain
As to B6, in data set [2], the oligomerisation result is given as “no change”.
